Reference: publication PMC5105163

Biological target: HLA-DM, P28067;P28068
Assay: SPR
Details: parent DR1/CW trace is at 10 µM, parent: est. 0, read off a plot

Row | Substance | response (5 µM DR1-βG84PβE87P/CW analyte over immobilised DM) | response (10 µM DR1-βE87P/CW analyte over immobilised DM)
1 | HLA-DR1/CLIP_(102-120)M107W complex (from UniProt P04233) βG84P; βE87P | 270 RU | 
2 | HLA-DR1/CLIP_(102-120)M107W complex (from UniProt P04233) βE87P |  | 50 RU
